assay: Beta-1,4-endoglucanase (CMCase) activity assay of Cel5ATm mutants; type: biochemical
Method: CMCase activity assay is carried out in 50 mM Bis-Tris-HCl buffer (pH 6.5) containing 1% carboxylmethylcellulose (CMC) and incubated at 75° C. for 30 min. Reducing sugars are analyzed by DNS method as described in Xiao Z, Storms R and Tsang A (2005) “Microplate-based carboxymethylcellulose assay for endoglucanase activity”, Anal. Biochem. 342: 176-178. Cellobiose is used as reducing sugars standard. 1 U is defined as enzyme amount to produce 1 μmol reducing sugars in one minute at optimal conditions.
5 μl supernatant is mixed with 35 μl sterile ddH2O and 40 μl 2% CMC in 100 mM Bis-Tris-HCl (pH 6.5) in 96-well PCR plates. These plates are incubated in thermocyclers at 75° C. for 30 min. 80 μl of DNS reagent is added (Ref 1), mixed and incubated at 95° C. for 5 min. The solution is cooled to 4° C. and transferred 100 μl of the products into 96-well plate for reading the ABS at 540 nm.
Clones from the mutant library are analyzed as described for the wild-type of Cel5ATm except that after transferring normal cultures into autoinduction medium, normal culture plates are added by sterile glycerol to 10%, mixed and stored at −80° C. for future investigation. The clones with endoglucanase activity larger than 120% of the wild-type are selected to express the enzymes in 5 ml culture and purified by Ni-NTA columns. Activity improvements are confirmed by detection of their specific activity (U/mg) and plasmids sequencing.

Row | Molecule | improvement of cellulase activity over the wild-type T. maritima cellulase
1 | P2H8: T. maritima Cel5A cellulase mutant with D40N and L231R; SEQ ID NO: 2 (protein, listed as Thermotoga maritima) MGVDPFERNKILGRGINIGNALEAPNEGDWGVVIKDEFFNIIKEAGFSHVRIPIRWSTHAYAFPPYKIMDRFFKRVDEVINGALKRGLAVVINIHHYEELMNDPEEHKERFLALWKQIADRYKDYPETLFFEILNEPHGNLTPEKWNELLEEALKVIRSIDKKHTIIIGTAEWGGISALEKLSVPKWEKNSIVTIHYYNPFEFTHQGAEWVEGSEKWLGRKWGSPDDQKHRIEEFNFIEEWSKKNKRPIYIGEFGAYRKADLESRIKWTSFVVREMEKRRWSWAYWEFCSGFGVYDTLRKTWNKDLLEALIGGDSIE | about 40.56%
2 | P3D7: T. maritima Cel5A cellulase mutant with E308K; SEQ ID NO: 3 (protein, listed as Thermotoga maritima) MGVDPFERNKILGRGINIGNALEAPNEGDWGVVIKDEFFDIIKEAGFSHVRIPIRWSTHAYAFPPYKIMDRFFKRVDEVINGALKRGLAVVINIHHYEELMNDPEEHKERFLALWKQIADRYKDYPETLFFEILNEPHGNLTPEKWNELLEEALKVIRSIDKKHTIIIGTAEWGGISALEKLSVPKWEKNSIVTIHYYNPFEFTHQGAEWVEGSEKWLGRKWGSPDDQKHLIEEFNFIEEWSKKNKRPIYIGEFGAYRKADLESRIKWTSFVVREMEKRRWSWAYWEFCSGFGVYDTLRKTWNKDLLKALIGGDSIE | about 78.76%
3 | P15G2: T. maritima Cel5A cellulase mutant with K35N, E209G and A256T; SEQ ID NO: 8 (protein, listed as Thermotoga maritima) MGVDPFERNKILGRGINIGNALEAPNEGDWGVVINDEFFDIIKEAGFSHVRIPIRWSTHAYAFPPYKIMDRFFKRVDEVINGALKRGLAVVINIHHYEELMNDPEEHKERFLALWKQIADRYKDYPETLFFEILNEPHGNLTPEKWNELLEEALKVIRSIDKKHTIIIGTAEWGGISALEKLSVPKWEKNSIVTIHYYNPFEFTHQGAGWVEGSEKWLGRKWGSPDDQKHLIEEFNFIEEWSKKNKRPIYIGEFGTYRKADLESRIKWTSFVVREMEKRRWSWAYWEFCSGFGVYDTLRKTWNKDLLEALIGGDSIE | about 66.92%
4 | P15H11: T. maritima Cel5A cellulase mutant with S177R; SEQ ID NO: 22 (protein, listed as Thermotoga maritima) MGVDPFERNKILGRGINIGNALEAPNEGDWGVVIKDEFFDIIKEAGFSHVRIPIRWSTHAYAFPPYKIMDRFFKRVDEVINGALKRGLAVVINIHHYEELMNDPEEHKERFLALWKQIADRYKDYPETLFFEILNEPHGNLTPEKWNELLEEALKVIRSIDKKHTIIIGTAEWGGIRALEKLSVPKWEKNSIVTIHYYNPFEFTHQGAEWVEGSEKWLGRKWGSPDDQKHLIEEFNFIEEWSKKNKRPIYIGEFGAYRKADLESRIKWTSFVVREMEKRRWSWAYWEFCSGFGVYDTLRKTWNKDLLEALIGGDSIE | about 35.98%
5 | P13F6: T. maritima Cel5A cellulase mutant with E132D, N140S, E202K and K304N; SEQ ID NO: 6 (protein, listed as Thermotoga maritima) MGVDPFERNKILGRGINIGNALEAPNEGDWGVVIKDEFFDIIKEAGFSHVRIPIRWSTHAYAFPPYKIMDRFFKRVDEVINGALKRGLAVVINIHHYEELMNDPEEHKERFLALWKQIADRYKDYPETLFFDILNEPHGSLTPEKWNELLEEALKVIRSIDKKHTIIIGTAEWGGISALEKLSVPKWEKNSIVTIHYYNPFKFTHQGAEWVEGSEKWLGRKWGSPDDQKHLIEEFNFIEEWSKKNKRPIYIGEFGAYRKADLESRIKWTSFVVREMEKRRWSWAYWEFCSGFGVYDTLRKTWNNDLLEALIGGDSIE | about 68.51%
6 | P1E3: T. maritima Cel5A cellulase mutant with E98A and E106D; SEQ ID NO: 1 (protein, listed as Thermotoga maritima) MGVDPFERNKILGRGINIGNALEAPNEGDWGVVIKDEFFDIIKEAGFSHVRIPIRWSTHAYAFPPYKIMDRFFKRVDEVINGALKRGLAVVINIHHYAELMNDPEDHKERFLALWKQIADRYKDYPETLFFEILNEPHGNLTPEKWNELLEEALKVIRSIDKKHTIIIGTAEWGGISALEKLSVPKWEKNSIVTIHYYNPFEFTHQGAEWVEGSEKWLGRKWGSPDDQKHLIEEFNFIEEWSKKNKRPIYIGEFGAYRKADLESRIKWTSFVVREMEKRRWSWAYWEFCSGFGVYDTLRKTWNKDLLEALIGGDSIE | about 31.77%
7 | P4B5: T. maritima Cel5A cellulase mutant with K155N; SEQ ID NO: 4 (protein, listed as Thermotoga maritima) MGVDPFERNKILGRGINIGNALEAPNEGDWGVVIKDEFFDIIKEAGFSHVRIPIRWSTHAYAFPPYKIMDRFFKRVDEVINGALKRGLAVVINIHHYEELMNDPEEHKERFLALWKQIADRYKDYPETLFFEILNEPHGNLTPEKWNELLEEALNVIRSIDKKHTIIIGTAEWGGISALEKLSVPKWEKNSIVTIHYYNPFEFTHQGAEWVEGSEKWLGRKWGSPDDQKHLIEEFNFIEEWSKKNKRPIYIGEFGAYRKADLESRIKWTSFVVREMEKRRWSWAYWEFCSGFGVYDTLRKTWNKDLLEALIGGDSIE | about 33.02%
8 | P8E4: T. maritima Cel5A cellulase mutant with A113V; SEQ ID NO: 5 (protein, listed as Thermotoga maritima) MGVDPFERNKILGRGINIGNALEAPNEGDWGVVIKDEFFDIIKEAGFSHVRIPIRWSTHAYAFPPYKIMDRFFKRVDEVINGALKRGLAVVINIHHYEELMNDPEEHKERFLVLWKQIADRYKDYPETLFFEILNEPHGNLTPEKWNELLEEALKVIRSIDKKHTIIIGTAEWGGISALEKLSVPKWEKNSIVTIHYYNPFEFTHQGAEWVEGSEKWLGRKWGSPDDQKHLIEEFNFIEEWSKKNKRPIYIGEFGAYRKADLESRIKWTSFVVREMEKRRWSWAYWEFCSGFGVYDTLRKTWNKDLLEALIGGDSIE | about 49.06%
9 | P15B10: T. maritima Cel5A cellulase mutant with D29V and I92F; SEQ ID NO: 7 (protein, listed as Thermotoga maritima) MGVDPFERNKILGRGINIGNALEAPNEGVWGVVIKDEFFDIIKEAGFSHVRIPIRWSTHAYAFPPYKIMDRFFKRVDEVINGALKRGLAVVFNIHHYEELMNDPEEHKERFLALWKQIADRYKDYPETLFFEILNEPHGNLTPEKWNELLEEALKVIRSIDKKHTIIIGTAEWGGISALEKLSVPKWEKNSIVTIHYYNPFEFTHQGAEWVEGSEKWLGRKWGSPDDQKHLIEEFNFIEEWSKKNKRPIYIGEFGAYRKADLESRIKWTSFVVREMEKRRWSWAYWEFCSGFGVYDTLRKTWNKDLLEALIGGDSIE | about 33.79%
